{"source": "paper PMC12775068", "molecular_target": "MUC2C-N (human MUC2 residues 4256-4803, C4786A; PTS3, VWCN, D4 and VWC1) (human)", "experiment": "cross-linking"}
{"substance": "MUC2C-N (human MUC2 residues 4256-4803, C4786A; PTS3, VWCN, D4 and VWC1) (domain or fragment)", "values": [{"measurement": "stoichiometry N", "result": 2}]}
